According to patent US20260109763A1 (DENALI THERAPEUTICS, published 2026):
Numbering of substitutions follows the chain as printed.

B1: Anti-PILRA antibody clone 32 (antibody, V domains shown)
VH: EVQLVQSGAEVKKPGASVKVSCKASGYTFTEYYMYWVRQAPGQGLELIGRIDPEDGGTDYIEKFKNRVTLTADTSTSTAYLELSSLRSEDTAVYYCATTIRGTVFAFWGQGTLVTVSS
VL: DIQMTQSPSSLSASVGDRVTITCRPSEDIYNGLAWYQQKPGKSPKLLIYNANSLHTGVPSRFSGSGSGTDYTLTISSLQPEDFATYFCQQYYDYPLTFGQGTKVEIK
notes: Humanized
B2: Anti-PILRA antibody clone 33 (antibody, V domains shown)
VH: B1 VH with V68S, Y95F
VL: B1 VL
notes: Humanized
B3: Anti-PILRA antibody clone 16 (antibody, V domains shown)
VH: B1 VH with I61V, V68A, L70I, T98S, A106V, F107Y
VL: B1 VL with P25A, Y30F, N52K, S53T, T69S
notes: Humanized
B4: Anti-PILRA antibody clone 29 (antibody, V domains shown)
VH: B1 VH with V68S, Y95F
VL: B1 VL with P25A, Y30F, N52K, S53T, F87Y
notes: Humanized
B5: Anti-PILRA antibody clone 25 (antibody, V domains shown)
VH: B1 VH with V68S, Y95F
VL: B1 VL with S43A
notes: Humanized
B6: Anti-PILRA antibody clone 21 (antibody, V domains shown)
VH: B1 VH with V68S, Y95F
VL: B1 VL with S43A, F87Y
notes: Humanized
B7: Anti-PILRA antibody clone 19 (antibody, V domains shown)
VH: B1 VH with I61V, V68A, Y95F, T98S, A106V, F107Y
VL: B1 VL with P25A, Y30F, N52K, S53T, T69S
notes: Humanized
B8: Anti-PILRA antibody clone 20 (antibody, V domains shown)
VH: B1 VH
VL: B1 VL with S43A, F87Y
notes: Humanized
B9: Anti-PILRA antibody clone 17 (antibody, V domains shown)
VH: B1 VH with I61V, T98S, A106V, F107Y
VL: B1 VL with P25A, Y30F, N52K, S53T, T69S
notes: Humanized
B10: Anti-PILRA antibody clone 22 (antibody, V domains shown)
VH: B1 VH with I61V, T98S, A106V, F107Y
VL: B1 VL with S43A, F87Y
notes: Humanized
B11: Anti-PILRA antibody clone 30 (antibody, V domains shown)
VH: B1 VH with I61V, T98S, A106V, F107Y
VL: B1 VL with P25A, Y30F, N52K, S53T, F87Y
notes: Humanized
B12: Anti-PILRA antibody clone 27 (antibody, V domains shown)
VH: B1 VH with I61V, V68A, Y95F, T98S, A106V, F107Y
VL: B1 VL with S43A
notes: Humanized
B13: Anti-PILRA antibody clone 18 (antibody, V domains shown)
VH: B1 VH with I61V, L70I, Y95F, T98S, A106V, F107Y
VL: B1 VL with P25A, Y30F, N52K, S53T, T69S
notes: Humanized
B14: Anti-PILRA antibody clone 13 (antibody, V domains shown)
VH: B1 VH
VL: B1 VL with P25A, Y30F, N52K, S53T, T69S
notes: Humanized
B15: Anti-PILRA antibody clone 34 (antibody, V domains shown)
VH: B1 VH with I61V, T98S, A106V, F107Y
VL: B1 VL
notes: Humanized
B16: Anti-PILRA antibody clone 26 (antibody, V domains shown)
VH: B1 VH with I61V, T98S, A106V, F107Y
VL: B1 VL with S43A
notes: Humanized
B17: Anti-PILRA antibody clone 31 (antibody, V domains shown)
VH: B1 VH with I61V, V68A, Y95F, T98S, A106V, F107Y
VL: B1 VL with P25A, Y30F, N52K, S53T, F87Y
notes: Humanized
B18: Anti-PILRA antibody clone 14 (antibody, V domains shown)
VH: B1 VH with L70I, Y95F
VL: B1 VL with P25A, Y30F, N52K, S53T, T69S
notes: Humanized

The binders below were run against T1, human PILRA G78 extracellular domain (recombinant hPILRA ECD) (human, UniProt Q9UKJ1 20-197) (assay: SPR, Biacore 8K; hPILRA ECD; antibody with wild-type Fc).
T1 construct: also called hPILRA G78
T1 sequence (Q9UKJ1 20-197 R78G limits assumed): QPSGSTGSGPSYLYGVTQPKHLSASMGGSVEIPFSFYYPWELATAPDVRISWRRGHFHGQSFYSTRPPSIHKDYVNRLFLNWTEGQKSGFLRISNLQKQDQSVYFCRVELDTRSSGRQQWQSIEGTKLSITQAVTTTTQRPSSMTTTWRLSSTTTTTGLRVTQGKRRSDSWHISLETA
In the case of B1, the Kd is reported as 2.8 nM. For B2, the Kd was 2.04 nM. Binder B3 has a Kd of 11 nM. With B4 the Kd was 1.28 nM. With B5 the Kd was 0.794 nM. Binder B6 has a Kd of 0.667 nM. In the case of B7, the Kd is reported as 2 nM. In the case of B8, the Kd is reported as 1.73 nM. B9 showed a Kd of 1.29 nM. B10 was tested, and the Kd was 0.515 nM. Work on B11 yielded a Kd of 0.878 nM. B12 showed a Kd of 0.536 nM. Binder B13 has a Kd of 7.53 nM. B14 was tested, and the Kd was 0.655 nM. B15 showed a Kd of 1.8 nM. Binder B16 has a Kd of 0.511 nM. B17 showed a Kd of 0.915 nM. B18 showed a Kd of 1.63 nM.
